Data on one molecule can be found in publication PMC9569509, “Collagen Type XI Inhibits Lung Cancer-Associated Fibroblast Functions and Restrains the Integrin Binding Site Availability on Collagen Type I Matrix” (International Journal of Molecular Sciences, 2022).

This test deals with bovine collagen type XI (bovine, UniProt Q28083 279-911; Q32S24 28-1736; P02459 182-1487, Triple helix of alpha1(XI), alpha2(XI) and alpha3(XI), the last being the COL2A1 product; hydroxyproline and glycosylated hydroxylysine. Purchased tissue collagen (Chondrex); limits not given, and t). Briefly: ELISA; solid phase assay: collagens (50 µg/mL) or fibronectin (10 µg/mL) immobilised on a 96-well plate; DDR2-Fc in 0.05 mg/mL κ-casein in PBS-T, 3 h at room temperature; detected by goat anti-human IgG (Fc specific)-HRP; Kd by Scatchard plot. Conditions: both partners purified. Background: An ELISA detects its analyte on a solid surface through an enzyme-linked reagent.
Sequence of bovine collagen type XI (Q28083 279-911, chain 1 of 3): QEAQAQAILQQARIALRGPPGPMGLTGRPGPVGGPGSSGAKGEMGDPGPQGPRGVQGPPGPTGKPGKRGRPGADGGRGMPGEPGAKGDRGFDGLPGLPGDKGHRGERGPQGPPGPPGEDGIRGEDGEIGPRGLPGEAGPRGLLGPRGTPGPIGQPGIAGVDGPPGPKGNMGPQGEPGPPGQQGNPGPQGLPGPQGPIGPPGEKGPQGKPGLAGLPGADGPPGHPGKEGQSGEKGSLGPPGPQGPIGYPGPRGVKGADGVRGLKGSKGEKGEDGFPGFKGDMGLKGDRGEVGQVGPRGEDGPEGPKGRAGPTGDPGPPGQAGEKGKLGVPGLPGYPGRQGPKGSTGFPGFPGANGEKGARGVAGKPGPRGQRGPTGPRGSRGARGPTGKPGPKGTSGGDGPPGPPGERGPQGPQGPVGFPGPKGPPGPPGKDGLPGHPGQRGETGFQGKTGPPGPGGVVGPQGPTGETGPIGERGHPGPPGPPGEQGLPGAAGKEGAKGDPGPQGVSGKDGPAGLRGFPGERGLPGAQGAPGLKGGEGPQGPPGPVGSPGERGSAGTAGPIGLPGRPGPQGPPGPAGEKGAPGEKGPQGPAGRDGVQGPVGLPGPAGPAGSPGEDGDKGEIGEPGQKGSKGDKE
Sequence of bovine collagen type XI (Q32S24 28-1736, chain 2 of 3): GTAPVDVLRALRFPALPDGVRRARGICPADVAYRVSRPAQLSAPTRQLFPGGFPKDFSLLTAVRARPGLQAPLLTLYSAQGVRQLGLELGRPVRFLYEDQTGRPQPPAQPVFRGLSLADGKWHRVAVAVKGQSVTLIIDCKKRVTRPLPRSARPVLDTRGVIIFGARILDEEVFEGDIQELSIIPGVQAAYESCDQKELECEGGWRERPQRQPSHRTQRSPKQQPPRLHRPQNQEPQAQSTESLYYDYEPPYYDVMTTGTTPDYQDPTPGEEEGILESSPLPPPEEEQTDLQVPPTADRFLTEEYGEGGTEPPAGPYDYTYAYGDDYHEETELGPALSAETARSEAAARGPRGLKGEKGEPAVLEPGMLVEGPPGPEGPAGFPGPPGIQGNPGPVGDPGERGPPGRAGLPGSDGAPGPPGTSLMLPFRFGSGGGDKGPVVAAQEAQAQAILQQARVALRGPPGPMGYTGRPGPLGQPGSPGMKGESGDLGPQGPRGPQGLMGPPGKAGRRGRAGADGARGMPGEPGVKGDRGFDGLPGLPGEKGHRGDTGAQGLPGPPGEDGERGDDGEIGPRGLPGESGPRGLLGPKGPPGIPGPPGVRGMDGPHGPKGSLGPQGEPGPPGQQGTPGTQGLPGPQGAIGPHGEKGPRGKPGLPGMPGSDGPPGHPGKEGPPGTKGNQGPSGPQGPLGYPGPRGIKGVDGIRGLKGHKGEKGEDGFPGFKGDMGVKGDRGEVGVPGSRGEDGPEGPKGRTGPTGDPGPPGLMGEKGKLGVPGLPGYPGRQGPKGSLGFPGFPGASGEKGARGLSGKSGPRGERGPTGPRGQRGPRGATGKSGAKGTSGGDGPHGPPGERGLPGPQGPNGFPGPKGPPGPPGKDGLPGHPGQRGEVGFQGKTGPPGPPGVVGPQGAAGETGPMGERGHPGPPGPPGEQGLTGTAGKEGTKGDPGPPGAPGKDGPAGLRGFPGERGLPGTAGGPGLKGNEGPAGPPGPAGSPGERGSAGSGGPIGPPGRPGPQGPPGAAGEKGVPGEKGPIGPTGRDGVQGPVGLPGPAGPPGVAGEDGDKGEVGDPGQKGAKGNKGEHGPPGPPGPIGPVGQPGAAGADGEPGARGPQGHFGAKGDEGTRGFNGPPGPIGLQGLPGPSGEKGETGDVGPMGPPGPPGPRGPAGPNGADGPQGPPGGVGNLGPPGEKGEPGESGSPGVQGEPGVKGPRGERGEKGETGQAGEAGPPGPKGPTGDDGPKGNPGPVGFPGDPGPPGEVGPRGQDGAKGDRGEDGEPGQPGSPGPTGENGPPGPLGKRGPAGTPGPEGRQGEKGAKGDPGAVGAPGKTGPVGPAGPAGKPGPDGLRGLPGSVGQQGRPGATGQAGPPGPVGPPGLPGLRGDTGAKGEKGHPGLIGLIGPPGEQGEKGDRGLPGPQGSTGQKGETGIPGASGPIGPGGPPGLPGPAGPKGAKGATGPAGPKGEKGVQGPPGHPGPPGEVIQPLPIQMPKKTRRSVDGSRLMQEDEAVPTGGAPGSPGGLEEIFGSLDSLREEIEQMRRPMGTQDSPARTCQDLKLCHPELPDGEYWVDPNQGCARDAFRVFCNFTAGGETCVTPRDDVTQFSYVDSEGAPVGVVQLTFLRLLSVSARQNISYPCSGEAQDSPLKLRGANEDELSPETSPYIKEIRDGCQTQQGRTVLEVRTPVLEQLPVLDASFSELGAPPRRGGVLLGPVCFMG
Sequence of bovine collagen type XI (P02459 182-1487, chain 3 of 3): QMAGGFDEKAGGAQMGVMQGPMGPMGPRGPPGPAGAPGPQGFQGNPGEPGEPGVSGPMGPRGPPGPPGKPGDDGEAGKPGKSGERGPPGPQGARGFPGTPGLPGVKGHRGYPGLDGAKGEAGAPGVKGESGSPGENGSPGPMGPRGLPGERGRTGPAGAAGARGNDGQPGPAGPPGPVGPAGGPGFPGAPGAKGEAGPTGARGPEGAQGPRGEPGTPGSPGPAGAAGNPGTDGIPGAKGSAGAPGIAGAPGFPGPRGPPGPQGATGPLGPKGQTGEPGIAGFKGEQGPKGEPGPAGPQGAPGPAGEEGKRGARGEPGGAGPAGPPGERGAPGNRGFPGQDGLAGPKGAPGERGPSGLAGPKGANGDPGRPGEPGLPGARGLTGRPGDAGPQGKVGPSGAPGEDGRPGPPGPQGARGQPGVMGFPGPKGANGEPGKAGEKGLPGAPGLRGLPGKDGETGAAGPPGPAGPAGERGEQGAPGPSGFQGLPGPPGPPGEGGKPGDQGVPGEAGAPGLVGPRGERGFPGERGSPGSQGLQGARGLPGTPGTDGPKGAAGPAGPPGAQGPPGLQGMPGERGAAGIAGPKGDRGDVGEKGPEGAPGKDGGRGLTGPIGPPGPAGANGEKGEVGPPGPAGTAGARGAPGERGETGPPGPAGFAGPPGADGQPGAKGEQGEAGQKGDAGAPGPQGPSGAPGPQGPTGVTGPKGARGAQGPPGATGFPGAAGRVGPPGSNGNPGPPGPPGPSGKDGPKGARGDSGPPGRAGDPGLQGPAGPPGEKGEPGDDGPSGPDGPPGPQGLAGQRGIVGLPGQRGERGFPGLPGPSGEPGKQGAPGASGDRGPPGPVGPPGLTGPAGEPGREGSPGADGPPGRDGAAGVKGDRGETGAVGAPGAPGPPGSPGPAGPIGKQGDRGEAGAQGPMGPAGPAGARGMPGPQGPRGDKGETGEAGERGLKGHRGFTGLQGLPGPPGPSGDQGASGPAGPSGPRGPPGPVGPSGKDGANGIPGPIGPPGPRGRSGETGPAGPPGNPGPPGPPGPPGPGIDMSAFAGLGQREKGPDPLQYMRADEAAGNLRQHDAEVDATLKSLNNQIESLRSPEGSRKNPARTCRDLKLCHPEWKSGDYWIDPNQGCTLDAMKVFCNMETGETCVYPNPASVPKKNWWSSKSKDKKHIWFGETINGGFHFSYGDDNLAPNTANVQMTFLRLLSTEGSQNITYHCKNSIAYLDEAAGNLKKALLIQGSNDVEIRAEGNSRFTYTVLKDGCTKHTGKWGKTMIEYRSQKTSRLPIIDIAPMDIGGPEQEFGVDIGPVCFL

Broadly, the Kd is the free concentration of one partner at which half of the binding sites on the other are occupied at equilibrium, for simple one-to-one binding.

B1: Recombinant human DDR2-Fc chimera protein (Fc fusion, UniProt Q16832 22-399, looked up)
chain: KAQVNPAICRYPLGMSGGQIPDEDITASSQWSESTAAKYGRLDSEEGDGAWCPEIPVEPDDLKEFLQIDLHTLHFITLVGTQGRHAGGHGIEFAPMYKINYSRDGTRWISWRNRHGKQVLDGNSNPYDIFLKDLEPPIVARFVRFIPVTDHSMNVCMRVELYGCVWLDGLVSYNAPAGQQFVLPGGSIIYLNDSVYDGAVGYSMTEGLGQLTDGVSGLDDFTQTHEYHVWPGYDYVGWRNESATNGYIEIMFEFDRIRNFTTMKVHCNNMFAKGVKIFKEVQCYFRSEASEWEPNAISFPLVLDDVNPSARFVTVPLHHRMASAIKCQYHFADTWMMFSEITFQSDAAMYNNSEALPTSPMAPTTYDPMLKVDDSNTR
notes: discoidin domain receptor 2, human; No catalogue number printed; Probably the extracellular domain of DDR2 joined to a human IgG Fc; Detected by goat anti-human IgG (Fc specific)-HRP; source: bought: Sino Biological
Consider B1, for which the Kd is 2 to 5 nM.
